The values that follow come from patent publication US20110257036A1.

The assay deals with BRCA1 protein (mouse) (mouse) (UniProt P48754). Kind of assay: cell-based or functional assay.
Sequence of UniProt P48754 (P48754 whole entry): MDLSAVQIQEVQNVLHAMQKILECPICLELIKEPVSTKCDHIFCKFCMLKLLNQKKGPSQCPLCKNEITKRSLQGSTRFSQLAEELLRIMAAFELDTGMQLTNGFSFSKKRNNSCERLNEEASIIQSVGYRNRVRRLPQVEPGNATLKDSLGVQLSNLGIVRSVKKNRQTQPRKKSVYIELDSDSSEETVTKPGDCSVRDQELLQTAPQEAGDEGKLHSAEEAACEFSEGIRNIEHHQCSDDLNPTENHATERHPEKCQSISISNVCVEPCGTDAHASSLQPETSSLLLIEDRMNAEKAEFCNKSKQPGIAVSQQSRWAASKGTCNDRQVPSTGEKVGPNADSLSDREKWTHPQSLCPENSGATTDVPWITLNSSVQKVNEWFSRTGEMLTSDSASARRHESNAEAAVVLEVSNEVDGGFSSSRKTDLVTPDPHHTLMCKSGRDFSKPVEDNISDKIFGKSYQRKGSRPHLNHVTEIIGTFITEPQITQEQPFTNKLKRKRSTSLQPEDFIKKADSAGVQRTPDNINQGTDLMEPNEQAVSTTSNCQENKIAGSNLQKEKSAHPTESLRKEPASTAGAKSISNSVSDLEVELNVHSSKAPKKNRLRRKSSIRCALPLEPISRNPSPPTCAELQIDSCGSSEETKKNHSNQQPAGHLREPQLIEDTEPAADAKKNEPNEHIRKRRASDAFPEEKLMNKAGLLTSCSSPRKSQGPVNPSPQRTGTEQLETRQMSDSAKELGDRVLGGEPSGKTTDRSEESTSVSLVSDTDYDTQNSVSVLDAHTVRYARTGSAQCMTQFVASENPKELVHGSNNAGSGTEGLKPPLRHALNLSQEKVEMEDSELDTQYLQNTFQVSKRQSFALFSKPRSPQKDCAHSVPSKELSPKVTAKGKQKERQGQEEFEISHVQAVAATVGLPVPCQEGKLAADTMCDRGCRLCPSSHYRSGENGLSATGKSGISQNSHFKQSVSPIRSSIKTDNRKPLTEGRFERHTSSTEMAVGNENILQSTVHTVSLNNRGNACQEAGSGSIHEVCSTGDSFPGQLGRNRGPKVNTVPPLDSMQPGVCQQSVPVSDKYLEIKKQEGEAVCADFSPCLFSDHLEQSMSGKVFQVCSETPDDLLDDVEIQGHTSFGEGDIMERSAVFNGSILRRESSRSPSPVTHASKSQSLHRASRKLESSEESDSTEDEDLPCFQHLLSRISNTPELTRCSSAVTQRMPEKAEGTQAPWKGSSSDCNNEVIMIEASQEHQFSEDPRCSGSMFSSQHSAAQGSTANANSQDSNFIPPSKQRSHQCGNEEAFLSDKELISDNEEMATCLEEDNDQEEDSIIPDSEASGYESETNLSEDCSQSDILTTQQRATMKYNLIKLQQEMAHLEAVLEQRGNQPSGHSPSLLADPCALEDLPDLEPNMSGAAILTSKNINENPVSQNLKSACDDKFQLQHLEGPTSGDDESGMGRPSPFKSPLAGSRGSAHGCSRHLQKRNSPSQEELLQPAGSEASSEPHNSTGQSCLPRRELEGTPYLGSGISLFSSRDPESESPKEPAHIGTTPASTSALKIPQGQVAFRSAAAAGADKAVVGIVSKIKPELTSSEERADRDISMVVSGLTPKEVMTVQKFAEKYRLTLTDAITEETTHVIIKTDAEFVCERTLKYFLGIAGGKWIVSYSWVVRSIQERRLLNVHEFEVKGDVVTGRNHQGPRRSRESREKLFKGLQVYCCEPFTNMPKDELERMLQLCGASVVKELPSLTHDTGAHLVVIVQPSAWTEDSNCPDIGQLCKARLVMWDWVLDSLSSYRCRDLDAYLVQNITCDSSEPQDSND

In the case of “FANCD2 protein (mouse) (from UniProt Q80V62 1-1450)”, the co-localization of anti-FANCD2 foci with anti-BRCA1 staining (20 pachytene nuclei) came to 65%.
